{"source": "paper PMC3302947", "target": "Vif(155–176) (PPLP peptide) (HIV-1)", "experiment": "AUC"}
{"substance": "Vif(155–176) (PPLP peptide)", "values": [{"measurement": "stoichiometry N", "result": 2}]}
